The numbers were not newly measured in article PMC8246649 (Biochemistry, 2021), which cites them from elsewhere.

For data set [1], the target named is UNC119A (Homo sapiens, UniProt Q13432). The note with it: read-out: Reported Kd of release factor to UNC119A.
Data set [2] has as its target UNC119B (Homo sapiens, UniProt A6NIH7). The note with it: read-out: Reported Kd of release factor to UNC119B.

UNC119B, sequence (A6NIH7 whole entry): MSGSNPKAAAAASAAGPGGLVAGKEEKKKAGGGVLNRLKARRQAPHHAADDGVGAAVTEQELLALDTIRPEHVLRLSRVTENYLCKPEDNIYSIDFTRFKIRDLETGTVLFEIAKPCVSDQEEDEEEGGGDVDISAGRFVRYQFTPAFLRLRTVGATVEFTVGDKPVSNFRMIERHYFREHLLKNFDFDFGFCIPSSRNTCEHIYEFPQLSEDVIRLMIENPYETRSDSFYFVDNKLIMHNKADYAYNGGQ

Consider “ARL2: ADP ribosylation factor-like protein 2, release factor of UNC119 cargo”, for which the dissociation constant (Kd) in data set [1] is 159 nM; in data set [2], 216 nM.

Take “ARL3: ADP ribosylation factor-like protein 3, release factor of UNC119 cargo”: the equilibrium dissociation constant (Kd) in data set [2] was 33 nM.
